From patent US20240199740A1 (Ablynx, published 2024)

T1: cynomolgus CD123 expressed on HEK Flp-In cells (cynomolgus)
T1 construct: EHH61867.1; also called cyCD123; cyno CD123
T1 chain: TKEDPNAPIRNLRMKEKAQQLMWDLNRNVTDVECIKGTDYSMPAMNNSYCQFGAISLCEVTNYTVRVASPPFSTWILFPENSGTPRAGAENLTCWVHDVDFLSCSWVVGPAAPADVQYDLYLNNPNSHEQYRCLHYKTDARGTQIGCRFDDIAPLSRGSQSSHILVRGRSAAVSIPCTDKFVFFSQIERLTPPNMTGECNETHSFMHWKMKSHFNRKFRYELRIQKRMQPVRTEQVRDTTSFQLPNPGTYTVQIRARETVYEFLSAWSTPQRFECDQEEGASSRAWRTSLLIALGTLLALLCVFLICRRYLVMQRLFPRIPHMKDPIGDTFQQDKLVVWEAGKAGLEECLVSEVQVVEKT

T2: recombinant human CD123 protein (R&D Systems, 301-R3/CF) (human, UniProt P26951 19-305)
T2 construct: Bought recombinant His-tagged extracellular domain of human CD123; also called recombinant CD123; in house biotinylated-CD123 recombinant protein; not shown: His tag of the bought protein
T2 sequence: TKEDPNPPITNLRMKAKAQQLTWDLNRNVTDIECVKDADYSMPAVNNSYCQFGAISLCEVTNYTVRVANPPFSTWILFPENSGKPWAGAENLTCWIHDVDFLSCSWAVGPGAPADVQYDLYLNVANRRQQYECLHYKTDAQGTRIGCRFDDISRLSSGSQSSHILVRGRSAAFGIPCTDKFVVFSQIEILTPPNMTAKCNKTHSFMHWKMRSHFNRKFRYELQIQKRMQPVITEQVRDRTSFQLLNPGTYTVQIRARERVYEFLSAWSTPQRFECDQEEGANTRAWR


Assays:
[1] = molecular target: T3, human CD123 expressed on cells (human, UniProt P26951 19-378); assay: cell-based or functional assay
[2] = molecular target: cynomolgus TCR/CD3 expressed on cells (cynomolgus); assay: cell-based or functional assay
[3] = molecular target: T1, cynomolgus CD123 expressed on HEK …; assay: flow cytometry competition, HEK Flp-In cyCD123 cells, competitor A0110056A10-Alexa647 (0.9 nM)
Experimental: (§1) Next to binding to the MOLM-13 and CHO Flp-In huCD123 cells, binding to cyno CD123 transfected HEK Flp-In cells was assessed.

[4] = molecular target: T3, human CD123 expressed on cells; assay: flow cytometry competition, MOLM-13 cells, competitor A0110056A10-Alexa647 (0.4 nM)
Experimental: as §1

[5] = molecular target: T3, human CD123 expressed on cells; assay: cell-based or functional assay; remark: listed apart in the source
[6] = molecular target: T3, human CD123 expressed on cells; assay: flow cytometry competition, CHO Flp-In huCD123 cells, competitor A0110056A10-Alexa647 (0.9 nM)
Experimental: as §1

[7] = molecular target: T3, human CD123 expressed on cells; assay: cell-based or functional assay; remark: listed apart in the source
[8] = molecular target: T3, human CD123 expressed on cells; assay: cell-based or functional assay; remark: listed apart in the source
[9] = molecular target: T2, recombinant human CD123 protein (R&D …); assay: SPR (ProteOn XPR36), CD123 immobilized
Experimental: Binding affinities for the CD123/TCR multispecific polypeptides were evaluated by means of an SPR based affinity determination on a ProteOn XPR36 instrument. […] The dissociation time of the 1000 nM sample was 15 min. Flow rate was 45 μl/min and ProteOn running buffer (PBS, pH 7.4, 0.005% Tween 20) was used as running buffer. Evaluation of the association/dissociation data was performed by fitting a 1:1 interaction model (Langmuir binding model).

[10] = molecular target: cynomolgus TCR/CD3 expressed on cells (cynomolgus); assay: cell-based or functional assay; remark: listed apart in the source
[11] = molecular target: T4, cynomolgus TCR/CD3 expressed on cells (cynomolgus); assay: flow cytometry competition, HSC-F cells, competitor T017000099 (500 nM)
T4 construct: whole, on cells; Native complex with CD3 chains; the cell type is named under assay or readout; also called cyno TCR/CD3; CD3/TCR expressed on HSC-F
Experimental: Cells were washed and incubated with Propidium Iodine to stain for dead cells, which are then removed during the gating procedure. The cells were then analysed via a BD FACSArray. First a P1 population which represented more than 80% of the total cell population was selected based on FSC-SSC distribution. In this gate, 10000 cells were counted during acquisition. From this population the PI+ cells (dead cells) were excluded and the median APC value was calculated.

human CD123 [12] = molecular target: T5, human CD123 (human, UniProt P26951 19-378); assay: cell-based or functional assay
human CD123 [13] = molecular target: T5, human CD123; assay: cell-based or functional assay; remark: listed apart in the source

| Binder | % lysis, redirected human T cell mediated killing of MOLM-13 cells, flow cytometry, E:T 10:1 [1] | EC50 (M), redirected human T cell mediated killing of MOLM-13 cells, flow cytometry, E:T 10:1 [1] | % lysis, redirected cyno T cell mediated killing of MOLM-13 cells, flow cytometry, E:T 10:1 [2] | EC50 (M), redirected cyno T cell mediated killing of MOLM-13 cells, flow cytometry, E:T 10:1 [2] | IC50 [3] | IC50 [4] | EC50 (M), human IL-6 secretion during human T cell mediated killing of CD123 transfected adherent target cells [5] | IC50 [6] | % lysis, redirected human T cell mediated killing of KG1a cells, flow cytometry, E:T 10:1 [7] | EC50 (M), redirected human T cell mediated killing of KG1a cells, flow cytometry, E:T 10:1 [7] | EC50 (M), IFN-γ secretion by human T cells during killing of CD123 transfected adherent target cells [8] | % lysis, redirected cyno T cell mediated killing of KG1a cells, flow cytometry [10] | EC50 (M), redirected cyno T cell mediated killing of KG1a cells, flow cytometry [10] | IC50 [11] | further results |
| --- | --- | --- | --- | --- | --- | --- | --- | --- | --- | --- | --- | --- | --- | --- | --- |
| T017000116 (bispecific antibody, Multispecific Nanobody polypeptide expressed in Pichia; also called A0110056A10-35GS-A0110055F03-35GS-T0170056G05-FLAG3-HIS6; not shown: C-terminal FLAG3-HIS6 tag) EVQLVESGGGLVQAGGSLRLSCAASGITSKINDMGWYRQTPGNYREWVASITATGTTNYRDSVKGRFTISRDNAKSTVYLQMNSLKPEDTTVYYCNTFPPISNFWGQGTLVTVSSGGGGSGGGGSGGGGSGGGGSGGGGSGGGGSGGGGSEVQLVESGGGLVQAGGPLRLSCAASGRTFSSYVMGWFRQAPGKEREFVAAIYWSNGKTQYTDSVKGRFTISGDNAKNTVYLQMNSLNPEDTAVYYCVADKDETGFRTLPIAYDYWGQGTLVTVSSGGGGSGGGGSGGGGSGGGGSGGGGSGGGGSGGGGSEVQLVESGGGLVQPGGSLRLSCVASGDVHKINFLGWYRQAPGKEREKVAHISIGDQTDYADSAKGRFTISRDESKNMVYLQMNSLKPEDTAVYFCRAFSRIYPYDYWGQGTLVTVSS | 17% | 2.2e-10 M | 15% | 3.9e-10 M | 5.6 nM | 1.8 nM | 9.6e-09 M | 1.6 nM | 5% | 4.2e-10 M | 8.1e-09 M | 14% | 3.7e-10 M |  | Kd [9]: 0.88 nM |
| T017000135 (bispecific antibody) DVQLVESGGGLVQAGGPLRLSCAASGRTFSSYVMGWFRQAPGKEREFVAAIYWSNGKTQYTDSVKGRFTISGDNAKNTVYLQMNSLNPEDTAVYYCVADKDETGFRTLPIAYDYWGQGTLVTVSSGGGGSGGGGSGGGGSGGGGSGGGGSGGGGSGGGGSEVQLVESGGGLVQPGGSLRLSCVASGDVHKINFLGWYRQAPGKEREKVAHISIGDQTDYADSAKGRFTISRDESKNMVYLQMNSLKPEDTAVYFCRAFSRIYPYDYWGQGTLVTVSSGGGGSGGGGSGGGGSGGGGSGGGGSGGGGSGGGGSEVQLVESGGGLVQAGGSLRLSCAASGITSKINDMGWYRQTPGNYREWVASITATGTTNYRDSVKGRFTISRDNAKSTVYLQMNSLKPEDTTVYYCNTFPPISNFWGQGTLVTVSSA | 33% | 1.1e-11 M |  |  |  |  | 5.9e-10 M |  | 18% | 5.1e-11 M | 2e-09 M |  |  |  |  |
| T017000129 (bispecific antibody, Control: anti-TCR Nanobody linked to the irrelevant anti-RSV Nanobody; also called irrelevant multivalent polypeptide T017000129) DVQLVESGGGLVQPGGSLRLSCVASGDVHKINFLGWYRQAPGKEREKVAHISIGDQTDYADSAKGRFTISRDESKNMVYLQMNSLKPEDTAVYFCRAFSRIYPYDYWGQGTLVTVSSGGGGSGGGGSGGGGSGGGGSGGGGSGGGGSGGGGSEVQLVESGGGLVQAGDSLRLSCAASGRTFSSYAMGWFRQAPGKEREFVAAISWSDGSTYYADSVKGRFTISRDNAKNTVYLQMNSLKPEDTAVYYCAADLTSTNPGSYIYIWAYDYWGQGTLVTVSSA |  |  |  |  |  |  |  |  |  |  |  |  |  | 520 nM |  |
| T017000138 (bispecific antibody) DVQLVESGGGLVQPGGSLRLSCVASGDVHKINFLGWYRQAPGKEREKVAHISIGDQTDYADSAKGRFTISRDESKNMVYLQMNSLKPEDTAVYFCRAFSRIYPYDYWGQGTLVTVSSGGGGSGGGGSGGGGSGGGGSGGGGSGGGGSGGGGSEVQLVESGGGLVQAGGSLRLSCAASGITSKINDMGWYRQTPGNYREWVASITATGTTNYRDSVKGRFTISRDNAKSTVYLQMNSLKPEDTTVYYCNTFPPISNFWGQGTLVTVSSGGGGSGGGGSGGGGSGGGGSGGGGSGGGGSGGGGSEVQLVESGGGLVQAGGPLRLSCAASGRTFSSYVMGWFRQAPGKEREFVAAIYWSNGKTQYTDSVKGRFTISGDNAKNTVYLQMNSLNPEDTAVYYCVADKDETGFRTLPIAYDYWGQGTLVTVSSA |  |  |  |  |  |  |  |  |  |  |  |  |  |  | EC50 (M), redirected cynomolgus T cell mediated killing of MOLM-13 cells, flow cytometry, E:T 10:1 (human CD123 [12]): 1.5e-10 M; EC50 (M), redirected human T cell mediated killing of MOLM-13 cells, flow cytometry, E:T 10:1 (human CD123 [12]): 1.1e-10 M; % lysis, redirected cynomolgus T cell mediated killing of KG1a cells, flow cytometry, E:T 10:1 (human CD123 [13]): 21%; % lysis, redirected human T cell mediated killing of KG1a cells, flow cytometry, E:T 10:1 (human CD123 [13]): 64%; EC50 (M), redirected cynomolgus T cell mediated killing of KG1a cells, flow cytometry, E:T 10:1 (human CD123 [13]): 2.8e-11 M; EC50 (M), redirected human T cell mediated killing of KG1a cells, flow cytometry, E:T 10:1 (human CD123 [13]): 1.6e-10 M |
| T017000138 (bispecific antibody, Multispecific Nanobody polypeptide expressed in Pichia) DVQLVESGGGLVQPGGSLRLSCVASGDVHKINFLGWYRQAPGKEREKVAHISIGDQTDYADSAKGRFTISRDESKNMVYLQMNSLKPEDTAVYFCRAFSRIYPYDYWGQGTLVTVSSGGGGSGGGGSGGGGSGGGGSGGGGSGGGGSGGGGSEVQLVESGGGLVQAGGSLRLSCAASGITSKINDMGWYRQTPGNYREWVASITATGTTNYRDSVKGRFTISRDNAKSTVYLQMNSLKPEDTTVYYCNTFPPISNFWGQGTLVTVSSGGGGSGGGGSGGGGSGGGGSGGGGSGGGGSGGGGSEVQLVESGGGLVQAGGPLRLSCAASGRTFSSYVMGWFRQAPGKEREFVAAIYWSNGKTQYTDSVKGRFTISGDNAKNTVYLQMNSLNPEDTAVYYCVADKDETGFRTLPIAYDYWGQGTLVTVSSA | 22% | 2.3e-11 M | 47% | 1.7e-11 M | 12 nM | 3.5 nM | 3.8e-11 M | 3.6 nM | 24% | 2.8e-10 M | 4e-10 M | 38% | 8.8e-11 M | 440 nM | EC50 (M), IFN-γ secretion by cynomolgus T cells during killing of CD123 transfected adherent target cells [8]: 8.7e-10 M |
